Results as given in patent US20190016826A1 (Genentech, published 2019).
Positions count from the first letter of the chain named.

Key:
Test in all cases: ELISA on plate-coated HuHtrA1_PD mutants (Example 7); column head on the sheet reads YW505.94 Fab, legend paragraph 70 says IgG94
N224A = target: T1, N224A
T1 construct: also called HuHtrA1_PD(N224A)
Procedure: (§1) The mutants were expressed in E. coli and the trimers purified by size exclusion chromatography as described in Example 2. Binding was determined using an ELISA assay, which was conducted using a MAXISORP™ microtiter plate coated with HuHtrA1_PD mutants at 2 μg/ml in PBS for 1 h, followed by blocking with PBST buffer (0.5% BSA and 0.05% Tween 20 in PBS) for 1 h at room temperature. […] The plates were washed with PBT buffer (0.05% Tween 20 in PBS), and HRP-conjugated goat anti-human IgG (H+L) (Invitrogen) was added (1:5000 in PBST buffer) and incubated for 1 h. The plates were washed with PBT buffer and developed by adding tetramethylbenzidine substrate (Kirkegaard and Perry Laboratories, Gaithersburg, Md.). The absorbance at 450 nm was plotted as a function of antibody concentration in solution to determine EC₅₀ values.
(§2) In trypsin-like serine proteases these loops are known to be part of the specificity determining region that interacts with substrates.

Y325A = target: T2, Y325A
T2 construct: also called HuHtrA1_PD(Y325A)
Procedure: as §1, §2

K191A = target: T3, K191A
T3 construct: also called HuHtrA1_PD(K191A)
Procedure: as §1, §2

D250A = target: T4, D250A
T4 construct: also called HuHtrA1_PD(D250A)
Procedure: as §1, §2

HuHtrA1_PD(H220A) = target: T5, HuHtrA1_PD(H220A) (human, UniProt F1N152 168-386 (bovine entry))
T5 construct: Alanine mutant of HuHtrA1_PD; also called HuHtrA1 mutant H220A; not shown: thrombin cleavage site
T5 chain: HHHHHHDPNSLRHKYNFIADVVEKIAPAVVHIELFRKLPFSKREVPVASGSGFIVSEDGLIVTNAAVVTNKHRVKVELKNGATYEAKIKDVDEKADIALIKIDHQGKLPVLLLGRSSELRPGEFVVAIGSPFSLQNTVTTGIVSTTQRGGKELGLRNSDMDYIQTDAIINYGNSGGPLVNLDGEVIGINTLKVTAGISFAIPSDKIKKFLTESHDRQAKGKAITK
Procedure: as §1, §2

HuHtrA1_PD(V201A) = target: T6, HuHtrA1_PD(V201A) (human, UniProt F1N152 168-386 (bovine entry))
T6 construct: Alanine mutant of HuHtrA1_PD; also called HuHtrA1 mutant V201A; not shown: thrombin cleavage site
T6 chain: T5 chain with V47A, A66H
Procedure: as §1, §2

K241A = target: T7, K241A
T7 construct: also called HuHtrA1_PD(K241A)
Procedure: as §1, §2

HuHtrA1_PD(E247A) = target: T8, HuHtrA1_PD(E247A) (human, UniProt F1N152 168-386 (bovine entry))
T8 construct: Alanine mutant of HuHtrA1_PD; also called HuHtrA1 mutant E247A; not shown: thrombin cleavage site
T8 chain: T5 chain with A66H, E93A
Procedure: as §1, §2

HuHtrA1_PD(K225A) = target: T9, HuHtrA1_PD(K225A) (human, UniProt F1N152 168-386 (bovine entry))
T9 construct: Alanine mutant of HuHtrA1_PD; also called HuHtrA1 mutant K225A; not shown: thrombin cleavage site
T9 chain: T5 chain with A66H, K71A
Procedure: as §1, §2

E239A = target: T10, E239A
T10 construct: also called HuHtrA1_PD(E239A)
Procedure: as §1, §2

EC50 (N224A): 135 nM
Relative to WT EC50 Fold Decrease (N224A): 24 fold
EC50 (Y325A): 7.7 nM
Relative to WT EC50 Fold Decrease (Y325A): 1.4 fold
EC50 (K191A): 14 nM
Relative to WT EC50 Fold Decrease (K191A): 2.5 fold
EC50 (D250A): 9.4 nM
Relative to WT EC50 Fold Decrease (D250A): 1.7 fold
EC50 (HuHtrA1_PD(H220A)): 32 nM
Relative to WT EC50 Fold Decrease (HuHtrA1_PD(H220A)): 5.7 fold
EC50 (HuHtrA1_PD(V201A)): 112 nM
Relative to WT EC50 Fold Decrease (HuHtrA1_PD(V201A)): 20 fold
EC50 (K241A): 23 nM
Relative to WT EC50 Fold Decrease (K241A): 4.1 fold
EC50 (HuHtrA1_PD(E247A)): 41.7 nM
Relative to WT EC50 Fold Decrease (HuHtrA1_PD(E247A)): 7.4 fold
EC50 (HuHtrA1_PD(K225A)): 52.2 nM
Relative to WT EC50 Fold Decrease (HuHtrA1_PD(K225A)): 9.3 fold
EC50 (E239A): 5.4 nM
Relative to WT EC50 Fold Decrease (E239A): 0.9 fold
B1: Fab94 (anti-HtrA1 antibody YW505.94, Fab format) (Fab, V domains shown)
VH: EVQLVESGGGLVQPGGSLRLSCAASGFNISGYYIHWVRQAPGKGLEWVGWIDPYGGDTNYADSVKGRFTISADTSKNTAYLQMNSLRAEDTAVYYCARGTFLTSWGHYFDYWGQGT
VL: DIQMTQSPSSLSASVGDRVTITCRASQDVSTAVAWYQQKPGKAPKLLIYSASFLYSGVPSRFSGSGSGTDFTLTISSLQPEDFATYYCQQSYTTPPTFGQGTKVEIKR
